Experimental data published in US20100260668A1 (published 2010).

B1: DVD589 (bispecific antibody, human IgG1, kappa)
heavy: not shown
light: DIVLTQSPDSLAVSLGERVTMNCKSSQSLLNSGMRKSFLAWYQQKPGQSPKLLIYWASTRESGVPDRFTGSGSGTDFTLTISSVQAEDVAVYYCKQSYHLFTFGSGTKLEIKRTVAAPDIQMTQSPSSLSASVGDRVTITCRASQDVSTAVAWYQQKPGKAPKLLIYSASFLYSGVPSRFSGSGSGTDFTLTISSLQPEDFATYYCQQSYTTPPTFGQGTKVEIKRTVAAPSVFIFPPSDEQLKSGTASVVCLLNNFYPREAKVQWKVDNALQSGNSQESVTEQDSKDSTYSLSSTLTLSKADYEKHKVYACEVTHQGLSSPVTKSFNRGEC
notes: HC linker long, LC linker short; also called DVD589VH; DVD589VL
B2: DVD591 (bispecific antibody, human IgG1, kappa)
heavy: not shown
light: DIVLTQSPDSLAVSLGERVTMNCKSSQSLLNSGMRKSFLAWYQQKPGQSPKLLIYWASTRESGVPDRFTGSGSGTDFTLTISSVQAEDVAVYYCKQSYHLFTFGSGTKLEIKRTVAAPDIQMTQSPSSLSASVGDRVTITCRASQVIRRSLAWYQQKPGKAPKLLIYAASNLASGVPSRFSGSGSGTDFTLTISSLQPEDFATYYCQQSNTSPLTFGQGTKVEIKRTVAAPSVFIFPPSDEQLKSGTASVVCLLNNFYPREAKVQWKVDNALQSGNSQESVTEQDSKDSTYSLSSTLTLSKADYEKHKVYACEVTHQGLSSPVTKSFNRGEC
notes: DVD-Ig, N-terminal PlGF (AB047), C-terminal VEGF (AB071); HC linker long, LC linker short; also called DVD591VH; DVD591VL
B3: DVD597 (bispecific antibody, human IgG1, kappa)
heavy: not shown
light: DIVLTQSPDSLAVSLGERVTMNCKSSQSLLNSGMRKSFLAWYQQKPGQSPKLLIYWASTRESGVPDRFTGSGSGTDFTLTISSVQAEDVAVYYCKQSYHLFTFGSGTKLEIKRTVAAPSVFIFPPDIQMTQSPSSLSASVGDRVTITCRASQDVSTAVAWYQQKPGKAPKLLIYSASFLYSGVPSRFSGSGSGTDFTLTISSLQPEDFATYYCQQSYTTPPTFGQGTKVEIKRTVAAPSVFIFPPSDEQLKSGTASVVCLLNNFYPREAKVQWKVDNALQSGNSQESVTEQDSKDSTYSLSSTLTLSKADYEKHKVYACEVTHQGLSSPVTKSFNRGEC
notes: HC linker short, LC linker long; also called DVD597VH; DVD597VL
B4: DVD599 (bispecific antibody, human IgG1, kappa)
heavy: not shown
light: DIVLTQSPDSLAVSLGERVTMNCKSSQSLLNSGMRKSFLAWYQQKPGQSPKLLIYWASTRESGVPDRFTGSGSGTDFTLTISSVQAEDVAVYYCKQSYHLFTFGSGTKLEIKRTVAAPSVFIFPPDIQMTQSPSSLSASVGDRVTITCRASQVIRRSLAWYQQKPGKAPKLLIYAASNLASGVPSRFSGSGSGTDFTLTISSLQPEDFATYYCQQSNTSPLTFGQGTKVEIKRTVAAPSVFIFPPSDEQLKSGTASVVCLLNNFYPREAKVQWKVDNALQSGNSQESVTEQDSKDSTYSLSSTLTLSKADYEKHKVYACEVTHQGLSSPVTKSFNRGEC
notes: DVD-Ig, N-terminal PlGF (AB047), C-terminal VEGF (AB071); HC linker short, LC linker long; also called DVD599VH; DVD599VL
B5: DVD470 (VEGF (seq. 1) N-terminal / DLL4 (seq. 1) C-terminal DVD-Ig, long HC linker, long LC linker) (bispecific antibody, human IgG1, kappa)
heavy: not shown
light: DIQMTQSPSSLSASVGDRVTITCSASQDISNYLNWYQQKPGKAPKVLIYFTSSLHSGVPSRFSGSGSGTDFTLTISSLQPEDFATYYCQQYSTVPWTFGQGTKVEIKRTVAAPSVFIFPPDIQMTQSPSSLSASVGDRVTITCRASQDVSTAVAWYQQKPGKAPKLLIYSASFLYSGVPSRFSGSGSGTDFTLTISSLQPEDFATTYYCQQSYTGTVTFGQGTKVEIKRTVAAPSVFIFPPSDEQLKSGTASVVCLLNNFYPREAKVQWKVDNALQSGNSQESVTEQDSKDSTYSLSSTLTLSKADYEKHKVYACEVTHQGLSSPVTKSFNRGEC
notes: also called DVD470H/DVD470L
B6: DVD476 (VEGF (seq. 1) N-terminal / DLL4 (seq. 1) C-terminal DVD-Ig, long HC linker, short LC linker) (bispecific antibody, human IgG1, kappa)
heavy: not shown
light: DIQMTQSPSSLSASVGDRVTITCSASQDISNYLNWYQQKPGKAPKVLIYFTSSLHSGVPSRFSGSGSGTDFTLTISSLQPEDFATYYCQQYSTVPWTFGQGTKVEIKRTVAAPDIQMTQSPSSLSASVGDRVTITCRASQDVSTAVAWYQQKPGKAPKLLIYSASFLYSGVPSRFSGSGSGTDFTLTISSLQPEDFATTYYCQQSYTGTVTFGQGTKVEIKRTVAAPSVFIFPPSDEQLKSGTASVVCLLNNFYPREAKVQWKVDNALQSGNSQESVTEQDSKDSTYSLSSTLTLSKADYEKHKVYACEVTHQGLSSPVTKSFNRGEC
notes: also called DVD476H/DVD476L
B7: DVD482 (VEGF (seq. 1) N-terminal / DLL4 (seq. 1) C-terminal DVD-Ig, short HC linker, long LC linker) (bispecific antibody, human IgG1, kappa)
heavy: not shown
light: B5 light
notes: also called DVD482H/DVD482L
B8: DVD471 (DLL4 (seq. 1) N-terminal / VEGF (AB070) C-terminal DVD-Ig, long HC linker, long LC linker) (bispecific antibody, human IgG1, kappa, L234A L235A)
heavy: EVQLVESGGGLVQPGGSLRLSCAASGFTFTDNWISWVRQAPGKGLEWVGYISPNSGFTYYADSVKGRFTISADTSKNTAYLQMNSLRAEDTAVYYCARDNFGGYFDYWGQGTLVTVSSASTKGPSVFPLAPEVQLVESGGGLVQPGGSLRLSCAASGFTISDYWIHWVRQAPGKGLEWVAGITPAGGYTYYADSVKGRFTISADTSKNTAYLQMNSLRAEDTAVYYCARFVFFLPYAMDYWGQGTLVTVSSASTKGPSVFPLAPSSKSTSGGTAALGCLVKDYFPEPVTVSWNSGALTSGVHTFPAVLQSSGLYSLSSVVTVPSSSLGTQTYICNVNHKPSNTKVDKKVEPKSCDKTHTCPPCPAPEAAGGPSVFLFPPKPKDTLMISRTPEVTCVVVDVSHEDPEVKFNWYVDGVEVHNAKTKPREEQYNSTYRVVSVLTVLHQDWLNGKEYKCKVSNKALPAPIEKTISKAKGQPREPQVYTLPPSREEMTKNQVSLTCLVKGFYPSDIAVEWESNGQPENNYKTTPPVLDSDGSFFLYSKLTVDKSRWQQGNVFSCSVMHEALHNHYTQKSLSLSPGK
light: DIQMTQSPSSLSASVGDRVTITCRASQDVSTAVAWYQQKPGKAPKLLIYSASFLYSGVPSRFSGSGSGTDFTLTISSLQPEDFATTYYCQQSYTGTVTFGQGTKVEIKRTVAAPSVFIFPPDIQMTQSPSSLSASVGDRVTITCRASQDVSTAVAWYQQKPGKAPKLLIYSASFLYSGVPSRFSGSGSGTDFTLTISSLQPEDFATYYCQQSYTTPPTFGQGTKVEIKRTVAAPSVFIFPPSDEQLKSGTASVVCLLNNFYPREAKVQWKVDNALQSGNSQESVTEQDSKDSTYSLSSTLTLSKADYEKHKVYACEVTHQGLSSPVTKSFNRGEC
notes: also called DVD471H/DVD471L
B9: DVD470 (bispecific antibody, human IgG1, kappa)
heavy: not shown
light: B5 light
notes: DVD-Ig; also called VEGF and DLL4 DVD-Ig, HC linker long, LC linker long
B10: DVD476 (bispecific antibody, human IgG1, kappa)
heavy: not shown
light: B6 light
notes: DVD-Ig; also called VEGF and DLL4 DVD-Ig, HC linker long, LC linker short
B11: DVD482 (bispecific antibody, human IgG1, kappa)
heavy: not shown
light: B5 light
notes: DVD-Ig; also called VEGF and DLL4 DVD-Ig, HC linker short, LC linker long
B12: DVD474 (bispecific antibody, human IgG1, kappa)
heavy: not shown
light: DIQMTQSPSSLSASVGDRVTITCRASQVIRRSLAWYQQKPGKAPKLLIYAASNLASGVPSRFSGSGSGTDFTLTISSLQPEDFATYYCQQSNTSPLTFGQGTKVEIKRTVAAPSVFIFPPDIQMTQSPSSLSASVGDRVTITCRASQDVSTAVAWYQQKPGKAPKLLIYSASFLYSGVPSRFSGSGSGTDFTLTISSLQPEDFATTYYCQQSYTGTVTFGQGTKVEIKRTVAAPSVFIFPPSDEQLKSGTASVVCLLNNFYPREAKVQWKVDNALQSGNSQESVTEQDSKDSTYSLSSTLTLSKADYEKHKVYACEVTHQGLSSPVTKSFNRGEC
notes: DVD-Ig; outer AB071 (VEGF), inner AB015 (DLL4); also called VEGF and DLL4 DVD-Ig, HC linker long, LC linker long
B13: DVD486 (bispecific antibody, human IgG1, kappa)
heavy: not shown
light: B12 light
notes: DVD-Ig; outer AB071 (VEGF), inner AB015 (DLL4); also called VEGF and DLL4 DVD-Ig, HC linker short, LC linker long
B14: DVD467 (bispecific antibody, human IgG1, kappa)
heavy: not shown
light: DIQMTQSPSSLSASVGDRVTITCRASQDVSTAVAWYQQKPGKAPKLLIYSASFLYSGVPSRFSGSGSGTDFTLTISSLQPEDFATTYYCQQSYTGTVTFGQGTKVEIKRTVAAPDIQMTQSPSSLSASVGDRVTITCRASQVIRRSLAWYQQKPGKAPKLLIYAASNLASGVPSRFSGSGSGTDFTLTISSLQPEDFATYYCQQSNTSPLTFGQGTKVEIKRTVAAPSVFIFPPSDEQLKSGTASVVCLLNNFYPREAKVQWKVDNALQSGNSQESVTEQDSKDSTYSLSSTLTLSKADYEKHKVYACEVTHQGLSSPVTKSFNRGEC
notes: DVD-Ig; outer AB015 (DLL4), inner AB071 (VEGF); HC short, LC short linker; also called DVD467H; DVD467L

Target: T1, PlGF (UniProt P49763-2 21-149, limits assumed)
T1 construct: Bought antigen coated on the ELISA plate; also called Placental GF; placental growth factor
T1 sequence (looked up): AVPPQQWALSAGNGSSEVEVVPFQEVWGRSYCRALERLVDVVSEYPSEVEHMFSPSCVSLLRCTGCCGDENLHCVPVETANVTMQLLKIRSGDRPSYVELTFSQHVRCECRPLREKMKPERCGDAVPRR
Test: direct bind ELISA, antigen on plate; N-terminal VD
Procedure: (§1) Enzyme Linked Immunosorbent Assays to screen for antibodies that bind a desired target antigen were performed as follows. […] Plates were washed four times with PBS containing 0.02% Tween 20. Plates were blocked by the addition of 300 μL/well blocking solution (non-fat dry milk powder, various retail suppliers, diluted to 2% in PBS) for ½ hour at room temperature. Plates were washed four times after blocking with PBS containing 0.02% Tween 20.
(§2) Plates were washed 4 times with PBS containing 0.02% Tween 20.

Binder	EC50 [nM]
B1	0.12
B2	0.13
B3	0.17
B4	0.23

Target: T2, human DLL4 on 293G-human DLL4 cells (human, UniProt Q9NR61 27-685)
T2 construct: whole, on cells; no method paragraph describes this FACS assay
Test: FACS: inhibition of Notch1 binding to 293G-human DLL4 cells (competitor Notch1)

Binder	IC50 [nM]
B5	38.3
B6	15.1
B7	16.3
B8	4.1

Target: T3, DLL4 (human, UniProt Q9NR61 27-685)
T3 construct: whole, on cells; also called human DLL4
Test: flow cytometry on 293G-human DLL4 cells; DLL4 VD C-terminal

Binder	EC50 [nM]
B9	1.72
B10	11.7
B11	3.25
B12	2.19
B13	2.09

Target: T4, human DLL4 extracellular domain (human, UniProt Q9NR61 27-529, biotin label in the Notch-1 competition ELISA (sites not given))
Test: cell-based or functional assay

Binder	DVD-Ig Inhibition of sFlt1 (IC50, nM) [nM]
B5	1.02
B6	1.68
B7	1.11
B8	1.92

Target: T5, VEGF (UniProt P15692 27-191, limits assumed)
T5 construct: Bought antigen coated on the ELISA plate; also called vascular endothelial growth factor
Test: direct bind ELISA, antigen on plate; C-terminal VD
Procedure: as §1, §2

T5 sequence (P15692 other isoform, or with tags, fused parts or gaps limits assumed): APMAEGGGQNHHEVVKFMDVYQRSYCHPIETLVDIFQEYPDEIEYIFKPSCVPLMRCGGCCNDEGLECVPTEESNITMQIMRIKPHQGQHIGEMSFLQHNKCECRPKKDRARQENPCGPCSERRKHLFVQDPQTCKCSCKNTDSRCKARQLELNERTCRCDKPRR

Binder	EC50 [nM]
B1	1360
B2	1170
B3	31.1
B4	664

Target: T4, human DLL4 extracellular domain
Test: competition ELISA: 14 nM biotin-labelled human DLL4 ECD pre-mixed with DVD-Ig, then on coated human Notch-1 (competitor Notch-1)
Procedure: Plates were then washed once with wash buffer (PBS, 0.05% Tween 20) and blocked with 200 μl/well blocking buffer (D-PBS, 1% BSA, 1 mM CaCl₂, 0.05% Tween 20) for 1 hour at 25° C.

Binder	IC50 [nM]
B5	2.82
B6	4.9
B7	2.65
B8	2.66

Target: T6, VEGF (biotinylated VEGF; VEGF165) (UniProt P15692-4 27-191, biotinylated (sites not given))
T6 construct: the method paragraph says only 'biotinylated VEGF'
Test: competition ELISA: DVD-Ig pre-incubated with 2 nM biotinylated VEGF, then on coated VEGFR1 ECD-Fc (competitor VEGFR1-Fc)

T6 sequence (P15692 other isoform, or with tags, fused parts or gaps limits assumed): as above

Binder	IC50 [nM]
B5	2.7
B6	2.4
B7	1.7
B8	5.46

Target: T7, DLL4 ECD/His tag (R&D 1506-D4-050) (UniProt Q9NR61 27-529)
T7 construct: extracellular domain; Bought antigen coated on the ELISA plate; not shown: His tag
Test: direct bind ELISA, DLL4 on plate; DLL4 VD N-term.; HC Short, LC Short

Binder	EC50 [nM]
B14	0.54
